Experimental data: the RNAGym collection of RNA variant scans (doi:10.1073/pnas.2313332121)

B1: TPR t1 (parent)
chain: GACCAAUCUGCCCUCAGAGCUCGAGAACAUCUUCGGAUGCAGAGGAGGCAGGCUUCGGUGGCGCGAUAGCGCCAACGUCCUCAACCUCCAAUGCAUCCCACCACAUGAUGAUGCCUGAAGAGCCUUGGUUUUUUG

Variants of: B1
Experiment: polymerase ribozyme fitness, log enrichment relative to wild type (log ratio); higher = more active; in vitro selection for triplet polymerase activity
In short: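 Libraries of mutants in each subunit of a heterodimeric triplet polymerase ribozyme were generated by PCR and transcribed. In triplicate, each went through one in vitro selection round: annealing with biotinylated primer, partner subunit and triplets; frozen incubation at −7 °C; gel excision of extended constructs; streptavidin-bead capture; RT-PCR. Fitness, taken from Illumina sequencing of input and output libraries, is the logarithm of a genotype's enrichment over wild-type enrichment, averaged across replicates with inverse-variance weights. The logarithm is base 2, and genotypes needed ≥10 input reads and ≥1 read per output to be kept.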

| Variant | polymerase ribozyme fitness (log ratio) |
| --- | --- |
| C20A C28U C62U C101A G113A | -6.69 |
| G19A G39U G61U G120C U132A | -1.96 |
| U21A A43U G61U C102A | -4.93 |
| A18U G69A | -5.06 |
| G19U G23C A27G A41C A46U G47C C70U C115U G135A | -5.42 |
| C20U C40G | -2.17 |
| C20G U33G C34G G44A A46U C98G G110C G113C | -6.24 |
| U21A A37C U38G U112G G122C C124U G135A | -1.11 |
| C20U G61A C88A | -1.39 |
| U21C G57A C72U G77C U96A A121U U125A | -3.06 |
| C20G A37G G69U C79U G117C | -1.73 |
| C20G C53U G60A U96A | -5.21 |
| C20A C88A | -2.94 |
| C20U C70U C102U | -3.45 |
| C20A U32A G93C | -4.21 |
| U21A C94G | -1.64 |
| C20A C72G U131G | -3.6 |
| C20U A41C | -3.04 |
| A18U G25A C34G C53U G61A A100U | -8.02 |
| C20U G69U C70G C94A | -3.15 |
| G19A G63C C76A G93A G110C | -5.44 |

| Variant | polymerase ribozyme fitness (log ratio) |
| --- | --- |
| G19C G61A U81G A84G A91G A111G | -4.6 |
| U21C A95C G107C U109A G113A C124U | -7.51 |
| C20U G120C | -0.868 |
| U21C C56U C62A G63A A90C C101A U112C | -6.74 |
| C20U C28A G60A A121C | -2.44 |
| C20A C53U U87A | -3.21 |
| C20G A41U C115U | -4.6 |
| A18U G60U U92G | -3.05 |
| U21A U87G | -0.0526 |
| U21A U87A | 0.177 |
| U21A A37U C94U G120A | 0.736 |
| C20U C72U G120C | -1.44 |
| G19A C114A A121U | -1.17 |
| G19U C72G U78A | -5.06 |
| C20U A26G A43G C53G C62A C82U | -5.29 |
| G19C | -1.91 |
| G19U | -2.52 |
| G19A | -2.28 |
| U21A A119U | -0.295 |
| C20G A43U | -3.89 |
| G19U C64U C124U | -2.27 |

| Variant | polymerase ribozyme fitness (log ratio) |
| --- | --- |
| C20U G117U | -3.53 |
| G19A C104U | -2.85 |
| C20A C62G A66C C104G U116C C123G G128U | -6.82 |
| G19A C94G | -3.41 |
| G19U U87A | -3.34 |
| G19U A41U G63C A111G | -4.2 |
| U21A G69A U112A | -3 |
| G19U G61A | -3.31 |
| G19A C40U C53A G58C G93U | -4.4 |
| U21A A24G C70U | -2.2 |
| C20U C72G A91G C101A C114G | -2.36 |
| G19A G45A C62U G71A | -3.18 |
| A18U G52U G61A | -2.78 |
| G19A C20A C62U | -4.22 |
| A18U G48A C49A C85G U133A | -3.22 |
| G19C A41U G71A C88G C89U C104A C124U | -5.88 |
| U21A G45A G58A G60U A100U C101G | -2.68 |
| U21A G57C G120A | -0.312 |
| C20A G45U C56U | -3.25 |
| C20A G71A | -3.79 |
| C20U G61C A111G | -5.2 |

| Variant | polymerase ribozyme fitness (log ratio) |
| --- | --- |
| G19U G45U G60U A119U | -5.1 |
| U21A A43U G60A C115U | -2.81 |
| G19C A41U U130C | -2.43 |
| G19U G110A | -4.35 |
| A18U G47U G52A | -5.39 |
| C20A G61U G63A C72U U92C C99G C101A C123U | -6.1 |
| C20U G63A U96G | -3.22 |
| G19U G69A | -3.8 |
| G19U G69C | -4.45 |
| C20U U55A C79U G120A | -1.1 |
| C20U C40G A46C G60U A75C | -4.1 |
| G19A C73G G77U U112A G128A | -2.41 |
| A18U G42U A74G | -1.91 |
| U21C C70G C94U A111G G128A U131A | -3.27 |
| U21C C22A G69C | -4.23 |
| C20G U106C | -4.11 |
| C20G A43G G48A C72G U106A C123A U129A | -6.54 |
| G19C G42C C97U C115A A119G U129A | -5.99 |
| C20U C22G G47A C72U C73U C101G A119G G122U | -6.75 |
| G19U C53G C73A U112A G135A | -0.754 |
